This data set concerns the molecule itself. Description: size exclusion chromatography, Superdex 75, pH 6.0 (self-association, homodimer).

Consider 1 protein from patent publication US20080138352A1 (INSTITUT PASTEUR, published 2008).

B1: recombinant Trypanosoma cruzi proline racemase TcPRACA (rTcPRACA), C-terminal His6-tagged (enzyme)
chain: GQEKLLFDQKYKIIKGEKKEKKKNQRANRREHQQKREIMRFKKSFTCIDMHTEGEAARIVTSGLPHIPGSNMAEKKAYLQENMDYLRRGIMLEPRGHDDMFGAFLFDPIEEGADLGMVFMDTGGYLNMCGHNSIAAVTAAVETGIVSVPAKATNVPVVLDTPAGLVRGTAHLQSGTESEVSNASIINVPSFLYQQDVVVVLPKPYGEVRVDIAFGGNFFAIVPAEQLGIDISVQNLSRLQEAGELLRTEINRSVKVQHPQLPHINTVDCVEIYGPPTNPEANYKNVVIFGNRQADRSPCGTGTSAKMATLYAKGQLRIGETFVYESILGSLFQGRVLGEERIPGVKVPVTKDAEEGMLVVTAEITGKAFIMGFNTMLFDPTDPFKNGFTLKQ
notes: the entry below describes its self-association into a homodimer; also called TcPA45; not shown: C-terminal six-histidine tag from pET28b(+)
B1: the binding result is listed as “binds”.
